Reference: US20240101645A1 (HENRY M JACKSON FOUNDATION FOR THE ADVANCEMENT OF MILITARY …, published 2024)

How the values were obtained:
[1] = molecular target: T1, MERS-CoV spike antigens (bead panel) (MERS-CoV, UniProt K9N5Q8 18-1296); assay: multiplex bead assay
T1 sequence: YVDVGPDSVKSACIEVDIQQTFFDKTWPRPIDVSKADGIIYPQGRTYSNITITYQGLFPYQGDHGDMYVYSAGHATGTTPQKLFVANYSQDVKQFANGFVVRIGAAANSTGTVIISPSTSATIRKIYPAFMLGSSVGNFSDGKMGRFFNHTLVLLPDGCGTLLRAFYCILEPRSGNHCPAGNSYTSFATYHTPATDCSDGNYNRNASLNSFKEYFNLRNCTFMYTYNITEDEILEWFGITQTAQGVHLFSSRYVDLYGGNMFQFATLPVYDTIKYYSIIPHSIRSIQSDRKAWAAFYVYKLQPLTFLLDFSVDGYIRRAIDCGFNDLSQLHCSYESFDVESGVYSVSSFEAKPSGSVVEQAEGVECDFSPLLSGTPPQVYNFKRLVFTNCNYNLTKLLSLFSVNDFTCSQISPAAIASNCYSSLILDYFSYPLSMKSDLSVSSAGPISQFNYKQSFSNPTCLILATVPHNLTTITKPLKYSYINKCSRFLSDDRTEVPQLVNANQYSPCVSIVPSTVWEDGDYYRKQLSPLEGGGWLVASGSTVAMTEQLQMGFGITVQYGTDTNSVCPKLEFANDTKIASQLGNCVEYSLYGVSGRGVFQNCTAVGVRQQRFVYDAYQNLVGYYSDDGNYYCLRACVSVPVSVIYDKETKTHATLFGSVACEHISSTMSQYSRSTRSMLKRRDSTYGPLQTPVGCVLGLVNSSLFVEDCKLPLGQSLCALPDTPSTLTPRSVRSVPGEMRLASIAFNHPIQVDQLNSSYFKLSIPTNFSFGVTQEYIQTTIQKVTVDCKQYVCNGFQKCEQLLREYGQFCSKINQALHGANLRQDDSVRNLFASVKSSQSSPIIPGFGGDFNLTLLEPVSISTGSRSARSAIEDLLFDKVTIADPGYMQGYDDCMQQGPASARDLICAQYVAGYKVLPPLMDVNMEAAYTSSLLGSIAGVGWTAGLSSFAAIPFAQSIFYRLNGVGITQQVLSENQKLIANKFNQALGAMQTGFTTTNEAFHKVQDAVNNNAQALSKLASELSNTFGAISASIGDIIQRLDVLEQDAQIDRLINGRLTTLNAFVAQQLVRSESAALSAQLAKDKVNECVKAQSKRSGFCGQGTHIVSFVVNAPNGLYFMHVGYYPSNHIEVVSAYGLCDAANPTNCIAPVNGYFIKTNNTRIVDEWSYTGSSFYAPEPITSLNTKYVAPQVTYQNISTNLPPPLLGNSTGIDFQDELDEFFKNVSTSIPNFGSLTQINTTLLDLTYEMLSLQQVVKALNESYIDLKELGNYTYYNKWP

[2] = molecular target: T2, HCoV-229E spike antigens (bead panel) (HCoV-229E, UniProt P15423 16-1115); assay: multiplex bead assay
T2 sequence: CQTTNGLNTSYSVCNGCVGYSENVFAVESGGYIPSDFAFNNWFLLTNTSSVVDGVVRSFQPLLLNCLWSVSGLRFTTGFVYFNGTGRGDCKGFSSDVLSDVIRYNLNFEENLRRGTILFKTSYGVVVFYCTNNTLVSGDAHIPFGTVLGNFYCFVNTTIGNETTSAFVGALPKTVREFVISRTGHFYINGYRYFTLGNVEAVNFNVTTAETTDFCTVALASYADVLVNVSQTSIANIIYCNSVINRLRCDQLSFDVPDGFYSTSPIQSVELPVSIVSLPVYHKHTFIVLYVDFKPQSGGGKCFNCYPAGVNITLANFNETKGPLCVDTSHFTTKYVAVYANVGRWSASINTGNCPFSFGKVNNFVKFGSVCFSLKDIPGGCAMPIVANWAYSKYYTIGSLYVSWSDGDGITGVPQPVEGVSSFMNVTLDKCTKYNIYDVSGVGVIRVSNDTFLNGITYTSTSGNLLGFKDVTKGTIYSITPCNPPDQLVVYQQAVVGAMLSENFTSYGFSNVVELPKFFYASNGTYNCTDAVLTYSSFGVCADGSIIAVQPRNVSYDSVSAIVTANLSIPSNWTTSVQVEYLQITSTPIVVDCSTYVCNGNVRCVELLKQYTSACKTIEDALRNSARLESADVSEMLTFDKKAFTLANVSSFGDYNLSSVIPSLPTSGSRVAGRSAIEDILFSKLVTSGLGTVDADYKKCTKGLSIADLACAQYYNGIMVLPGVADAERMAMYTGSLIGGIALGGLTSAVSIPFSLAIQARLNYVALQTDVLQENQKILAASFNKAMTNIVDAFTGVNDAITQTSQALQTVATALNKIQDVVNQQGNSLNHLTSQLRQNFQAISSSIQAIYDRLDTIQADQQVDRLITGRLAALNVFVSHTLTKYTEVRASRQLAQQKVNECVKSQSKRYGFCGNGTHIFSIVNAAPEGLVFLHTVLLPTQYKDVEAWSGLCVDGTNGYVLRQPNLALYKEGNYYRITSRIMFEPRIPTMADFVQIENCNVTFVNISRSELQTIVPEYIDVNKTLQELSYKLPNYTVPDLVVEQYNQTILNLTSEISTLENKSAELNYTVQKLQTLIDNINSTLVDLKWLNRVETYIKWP

[3] = molecular target: T3, HCoV-HKU1 spike antigens (bead panel) (HCoV-HKU1, UniProt Q5MQD0 13-1300); assay: multiplex bead assay
T3 sequence: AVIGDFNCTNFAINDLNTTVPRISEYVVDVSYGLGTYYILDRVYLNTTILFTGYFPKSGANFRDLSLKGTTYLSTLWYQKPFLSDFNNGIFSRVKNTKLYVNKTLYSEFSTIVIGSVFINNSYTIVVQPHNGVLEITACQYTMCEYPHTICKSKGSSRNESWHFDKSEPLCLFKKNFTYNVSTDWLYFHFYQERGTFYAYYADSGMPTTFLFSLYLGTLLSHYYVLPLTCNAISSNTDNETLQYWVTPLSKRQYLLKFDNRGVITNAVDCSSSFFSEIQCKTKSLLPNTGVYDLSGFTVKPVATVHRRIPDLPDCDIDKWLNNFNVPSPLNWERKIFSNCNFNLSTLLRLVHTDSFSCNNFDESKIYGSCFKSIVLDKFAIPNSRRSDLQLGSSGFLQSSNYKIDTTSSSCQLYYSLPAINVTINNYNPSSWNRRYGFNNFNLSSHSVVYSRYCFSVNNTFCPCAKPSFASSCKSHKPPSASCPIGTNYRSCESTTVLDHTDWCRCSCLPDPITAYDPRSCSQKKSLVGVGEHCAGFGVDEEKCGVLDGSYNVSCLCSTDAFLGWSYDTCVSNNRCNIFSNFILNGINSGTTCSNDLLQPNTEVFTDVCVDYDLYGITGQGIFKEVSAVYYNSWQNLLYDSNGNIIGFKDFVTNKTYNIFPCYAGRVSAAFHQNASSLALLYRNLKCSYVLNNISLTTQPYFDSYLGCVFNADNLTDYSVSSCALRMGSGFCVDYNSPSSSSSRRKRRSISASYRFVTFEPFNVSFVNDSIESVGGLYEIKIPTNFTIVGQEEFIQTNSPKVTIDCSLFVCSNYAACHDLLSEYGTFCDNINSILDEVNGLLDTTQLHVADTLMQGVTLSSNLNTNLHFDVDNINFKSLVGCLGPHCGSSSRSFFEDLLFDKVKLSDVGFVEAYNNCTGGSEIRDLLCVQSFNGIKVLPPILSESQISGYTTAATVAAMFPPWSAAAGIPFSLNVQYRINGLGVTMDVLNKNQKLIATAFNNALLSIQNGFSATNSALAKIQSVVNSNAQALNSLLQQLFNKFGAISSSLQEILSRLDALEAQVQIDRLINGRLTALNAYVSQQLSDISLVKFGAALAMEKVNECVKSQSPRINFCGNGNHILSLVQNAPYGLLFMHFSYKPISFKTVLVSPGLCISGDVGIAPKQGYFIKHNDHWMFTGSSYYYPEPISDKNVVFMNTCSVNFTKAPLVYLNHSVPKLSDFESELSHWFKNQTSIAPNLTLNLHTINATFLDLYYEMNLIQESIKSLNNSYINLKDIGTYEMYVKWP

[4] = molecular target: SARS-CoV-2 S on pseudovirions (Wuhan Hu-1 / IL1/2020, last 18 amino acids removed) (SARS-CoV-2, UniProt P0DTC2 14-1273); assay: cell-based or functional assay
[5] = molecular target: SARS-CoV-1 spike antigens (bead panel) (SARS-CoV-1, UniProt P59594 14-1195); assay: multiplex bead assay

B1: COV_2055 (antibody, V domains shown)
VH: EVQLVESGGGVVQPGRSLRLSCAASGFTLSSYGMHWVRQAPGKGLEWVAVISYEGSNKHYADSVKGRFTISRDNSKNTLYLQMNSLRAEDTAVYYCAKGSTNYFDHWGQGTLVTVSS
VL: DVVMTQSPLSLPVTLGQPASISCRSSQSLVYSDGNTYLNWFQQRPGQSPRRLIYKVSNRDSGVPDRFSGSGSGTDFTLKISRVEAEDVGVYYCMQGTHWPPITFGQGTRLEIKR
notes: human IgG1
**Q.** Does B1 bind [1]?
**A.** Result: no binding

**Q.** Does B1 bind [2]?
**A.** Result: no binding

B2: COV_1116 (antibody, V domains shown)
VH: EVQLVESGGGLVKPGGSLRLSCAASGFTFSSYSMNWVRQAPGKGLEWVSSISSSNAYIYSADSVKGRFTISRDNAKNSLYLQMNSLRADDTAVYYCARGGRGLSSSPGRLDYYYGLDVWGQGTTVTVSS
VL: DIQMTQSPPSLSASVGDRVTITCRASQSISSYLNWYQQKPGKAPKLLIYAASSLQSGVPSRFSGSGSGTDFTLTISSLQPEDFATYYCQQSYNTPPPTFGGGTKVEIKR
notes: human IgG1
**Q.** Does B2 bind [1]?
**A.** Result: no binding

**Q.** Does B2 bind [2]?
**A.** Result: no binding

**Q.** Does B2 bind [3]?
**A.** Result: no binding

**Q.** What about the “Mean IC50, pSV neutralization” value [4] of the same binder?
**A.** The value was 6.99 µg/ml.

**Q.** What about the “Mean IC80, pSV neutralization” value [4] of the same binder?
**A.** The value was no less than 25 µg/ml.

B3: COV_1063 (antibody, V domains shown)
VH: EEKLVESGGDLVQPGGSLRISCEVSGFSLSKYWMNWVRQAPGKGLQWVANIEEDGSERNYADSVKGRFTISRDNARNSLYLQMNSLRVEDTAVYLCTAGHYAGPWGWGQGTLVTVSS
VL: DIQMTQSPSSLSASVGDRVTVTCRASQDIGHYLAWYQQKPGKTPNLLIYDAFNLESGVPPRFGGSGSGTDFTLTISSLQPEDAATYYCQKYDSVPWTFGQGTKVEIKR
notes: human IgG1
**Q.** Does B3 bind [5]?
**A.** Result: no binding

**Q.** What about the “Mean IC50, pSV neutralization” value [4] of the same binder?
**A.** Its value is no less than 25 µg/ml.

**Q.** What about the “Mean IC80, pSV neutralization” value [4] of the same binder?
**A.** Its value is no less than 25 µg/ml.

B4: COV_1131 (antibody, V domains shown)
VH: QVQLQESGPGLVKPSETLSLTCSVSGGSISSYYWSWIRQPPGKGLEWIGYISYSGSTNYNPSLKSRVTISVDTSKNQFSLKLSSVTAADTAVYYCARLGFGGIYPSLYDAFDIWGQGTMVTVSS
VL: DIQMTQSPSSLSASVGDRVTITCRASQTISSYLNWYQQKPGKAPNLLIYDASSLQRGVPSRFSGSGSGTDFTLTISSLQPEDFATYYCQQSYSTPRTFGQGTKVEIKR
notes: human IgG1
**Q.** Which results are given for B4?
**A.** binding result [1]: no binding; binding result [2]: no binding; binding result [3]: no binding; Mean IC50, pSV neutralization [4]: ≥ 25 µg/ml; Mean IC80, pSV neutralization [4]: ≥ 25 µg/ml

B5: COV_2064 (antibody, V domains shown)
VH: EVQLVESGGGLVQPGGSLRLSCTASGFTFNNNWMHWVRQVPGKGLVWVSRINTDESSTSYADSVKGRFIISRDNAKNTLYLQMNSLRVEDTAVYYCARSTAQYDIWTGYYYYMDVWGKGTTVTVSS
VL: DIQMTQSPSTLSASVGDRVTISCRASQSISTWLAWYQQKPGKAPNLLIYGASNLGSGVPSRFSGGGSGTEFTLTISSLQSDDFATYYCQRYNSFPYTFGQGTKLEIKR
notes: human IgG1
**Q.** Does B5 bind [1]?
**A.** Result: no binding

**Q.** Does B5 bind [2]?
**A.** Result: no binding

**Q.** Does B5 bind [3]?
**A.** Result: no binding

**Q.** What about the “Mean IC50, pSV neutralization” value [4] of the same binder?
**A.** The value was no less than 25 µg/ml.

**Q.** What about the “Mean IC80, pSV neutralization” value [4] of the same binder?
**A.** Its value is no less than 25 µg/ml.

B6: COV_1032 (antibody, V domains shown)
VH: QVHLQESGPGLVKPSETLSLTCTVSGGSISSYYWSWIRQPPGKGLEWIGYIYDSGSTNYNPSLKSRVTISVDTSKNQFSLKLSSVTAADTAVYYCARSVRGVTIDYWGQGTLVTVSS
VL: DIQMTQSPSSLSASVGDRVTITCRASQSISNSISSYLNWYQKKPGKAPKLLIYAASSLQSGVPSRFSGSGSGTDFTLTISSLQPEDFATYYCQQSYSTPTTFGQGTKVEIKR
notes: human IgG1
**Q.** Does B6 bind [1]?
**A.** Result: no binding

**Q.** Does B6 bind [2]?
**A.** Result: no binding

**Q.** And the “Mean IC50, pSV neutralization” value [4]?
**A.** The value was 2.5 µg/ml.

**Q.** What about the “Mean IC80, pSV neutralization” value [4] of the same binder?
**A.** Its value is no less than 25 µg/ml.
